The record followed here is publication PMC4325984 (The Biochemical journal, 2015).

In this test the target is rabbit muscle ADP-G-actin (rabbit, UniProt P68135 1-377). Briefly: ITC.

B1: UNC-60A (natural protein)
chain: MSSGVMVDPDVQTSFQKLSEGRKEYRYIIFKIDENKVIVEAAVTQDQLGITGDDYDDSSKAAFDKFVEDVKSRTDNLTDCRYAVFDFKFTCSRVGAGTSKMDKIIFLQICPDGASIKKKMVYASSAAAIKTSLGTGKILQFQVSDESEMSHKELLNKLGEKYGDH
The Kd is a measure of binding affinity in units of concentration. A high value points to a looser complex. By stoichiometry N is commonly meant the number of molecules, sites or subunits per partner or assembly. Regarding B1, the Kd is 32.2 nM, the dH was -2.31 ± 0.0711 kcal/mol and the “stoichiometry N” value was 1.

B2: UNC-60B (natural protein)
chain: MASGVKVDPSCKNAYDLLHNKHQHSYIIFKIDKNDTAIVVEKVGEKNAPYAEFVEEMKKLVEDGKECRYAAVDVEVTVQRQGAEGTSTLNKVIFVQYCPDNAPVRRRMLYASSVRALKASLGLESLFQVQASEMSDLDEKSVKSDLMSNQRI
Molecule B2 yielded a dissociation constant Kd of 8.62 nM and a dH of -6.72 ± 0.117 kcal/mol.
